In paper PMC9482650, “Quantitative fragmentomics allow affinity mapping of interactomes” (Nature Communications, 2022):

Tests used:
Test in all cases: holdup assay
Set-up in all cases: key: below the threshold = too weak to quantify, mostly under pKd 3.1 to 4
Inadl_10, Q8NI35 = target: Inadl_10, Q8NI35
FRMPD3, Q5JV73 = target: FRMPD3, Q5JV73
SCRIB_1, Q14160 = target: SCRIB_1, Q14160
Inadl_4, Q8NI35 = target: Inadl_4, Q8NI35
GRIP1_5, Q9Y3R0 = target: T1, GRIP1_5, Q9Y3R0
T1 sequence (Q9Y3R0 568-668, limits assumed, looked up): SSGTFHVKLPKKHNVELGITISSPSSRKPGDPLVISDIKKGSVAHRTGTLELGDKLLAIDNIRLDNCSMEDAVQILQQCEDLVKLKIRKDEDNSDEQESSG

AHNAK1, Q09666 = target: AHNAK1, Q09666
NOS1, P29475 = target: NOS1, P29475
Inadl_8, Q8NI35 = target: Inadl_8, Q8NI35
DLG1_3, Q12959 = target: DLG1_3, Q12959
PTPN3, P26045 = target: PTPN3, P26045
GRIP2_3, Q9C0E4 = target: GRIP2_3, Q9C0E4
NHERF4_1, Q86UT5-2 = target: NHERF4_1, Q86UT5-2
Inadl_5, Q8NI35 = target: Inadl_5, Q8NI35
HTRA3, P83110 = target: T2, HTRA3, P83110
T2 sequence (P83110 354-453, limits assumed, looked up): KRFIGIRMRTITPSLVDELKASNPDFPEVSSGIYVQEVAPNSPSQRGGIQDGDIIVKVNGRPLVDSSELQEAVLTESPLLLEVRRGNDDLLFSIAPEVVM

PDZRN4_1, Q6ZMN7 = target: PDZRN4_1, Q6ZMN7
APBA1_1, Q02410 = target: T3, APBA1_1, Q02410
T3 sequence (Q02410 651-752, limits assumed, looked up): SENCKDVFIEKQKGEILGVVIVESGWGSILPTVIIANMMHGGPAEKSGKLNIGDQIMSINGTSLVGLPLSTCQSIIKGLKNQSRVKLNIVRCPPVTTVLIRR

DLG3_3, Q92796 = target: T4, DLG3_3, Q92796
T4 sequence (Q92796 374-475, limits assumed, looked up): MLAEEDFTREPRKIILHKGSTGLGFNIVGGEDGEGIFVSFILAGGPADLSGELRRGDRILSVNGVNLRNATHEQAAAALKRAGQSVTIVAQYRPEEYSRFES

APBA1_2, Q02410 = target: T5, APBA1_2, Q02410
T5 sequence (Q02410 742-832, limits assumed, looked up): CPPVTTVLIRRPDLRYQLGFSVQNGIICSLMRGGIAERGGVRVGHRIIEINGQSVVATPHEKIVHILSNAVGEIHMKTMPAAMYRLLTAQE

GOPC, Q9HD26 = target: GOPC, Q9HD26
PDLIM1, O00151 = target: PDLIM1, O00151
Inadl_9, Q8NI35 = target: Inadl_9, Q8NI35
LNX2_2, Q8N448 = target: T6, LNX2_2, Q8N448
T6 sequence (Q8N448 334-432, limits assumed, looked up): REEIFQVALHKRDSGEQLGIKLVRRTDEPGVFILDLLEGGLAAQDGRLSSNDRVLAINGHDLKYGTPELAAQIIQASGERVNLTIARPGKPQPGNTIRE

FRMPD1, Q5SYB0 = target: T7, FRMPD1, Q5SYB0
T7 sequence (Q5SYB0 52-145, limits assumed, looked up): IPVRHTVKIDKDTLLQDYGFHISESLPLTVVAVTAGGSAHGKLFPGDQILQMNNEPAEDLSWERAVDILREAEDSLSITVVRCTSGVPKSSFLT

TJP1_3, Q07157 = target: TJP1_3, Q07157
DFNB31_2, Q9P202 = target: T8, DFNB31_2, Q9P202
T8 sequence (Q9P202 274-371, limits assumed, looked up): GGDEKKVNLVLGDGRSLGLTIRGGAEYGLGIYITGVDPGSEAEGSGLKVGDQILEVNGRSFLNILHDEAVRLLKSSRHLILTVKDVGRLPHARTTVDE

DLG1_2, Q12959 = target: DLG1_2, Q12959
TJP2_1, Q9UDY2 = target: TJP2_1, Q9UDY2
DVL3, Q92997 = target: T9, DVL3, Q92997
T9 sequence (Q92997 244-331, limits assumed, looked up): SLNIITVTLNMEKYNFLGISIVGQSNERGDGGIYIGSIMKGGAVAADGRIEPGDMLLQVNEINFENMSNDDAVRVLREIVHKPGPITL

SCRIB_3, Q14160 = target: SCRIB_3, Q14160
[1] = plain residues with an end cap or a label only (N-terminal biotin on a linker: ado-ado)
[2] = plain residues with an end cap or a label only (N-terminal biotin on a linker: ahx)

Sequence of Inadl_4, Q8NI35 (Q8NI35 547-651): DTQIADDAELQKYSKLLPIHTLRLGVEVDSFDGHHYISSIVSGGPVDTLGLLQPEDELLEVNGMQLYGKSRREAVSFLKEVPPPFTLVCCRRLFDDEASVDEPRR
Sequence of DLG1_2, Q12959 (Q12959 314-412): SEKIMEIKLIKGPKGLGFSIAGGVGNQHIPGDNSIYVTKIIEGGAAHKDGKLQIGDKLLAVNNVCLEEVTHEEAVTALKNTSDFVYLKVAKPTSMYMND
Sequence of Inadl_10, Q8NI35 (Q8NI35 1673-1763): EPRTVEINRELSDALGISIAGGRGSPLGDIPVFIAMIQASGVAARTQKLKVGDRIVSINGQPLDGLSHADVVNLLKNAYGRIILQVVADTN
Sequence of TJP2_1, Q9UDY2 (Q9UDY2 24-128): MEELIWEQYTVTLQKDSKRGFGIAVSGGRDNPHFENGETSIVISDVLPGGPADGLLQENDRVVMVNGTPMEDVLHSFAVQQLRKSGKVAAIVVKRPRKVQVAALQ
Sequence of SCRIB_3, Q14160 (Q14160 999-1103): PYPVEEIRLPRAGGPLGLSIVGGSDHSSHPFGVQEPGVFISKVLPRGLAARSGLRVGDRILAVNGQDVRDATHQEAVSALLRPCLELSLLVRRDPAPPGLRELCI
Sequence of Inadl_9, Q8NI35 (Q8NI35 1530-1615): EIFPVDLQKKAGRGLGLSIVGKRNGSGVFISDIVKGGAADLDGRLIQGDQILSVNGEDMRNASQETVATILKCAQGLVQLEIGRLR
Sequence of PDZRN4_1, Q6ZMN7 (Q6ZMN7 213-318): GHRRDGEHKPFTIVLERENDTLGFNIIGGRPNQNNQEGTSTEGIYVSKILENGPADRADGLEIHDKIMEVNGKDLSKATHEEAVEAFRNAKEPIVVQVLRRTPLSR
Sequence of SCRIB_1, Q14160 (Q14160 718-814): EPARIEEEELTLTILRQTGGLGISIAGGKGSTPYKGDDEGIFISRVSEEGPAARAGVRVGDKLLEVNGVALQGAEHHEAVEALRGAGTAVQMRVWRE
Sequence of FRMPD3, Q5JV73 (Q5JV73 12-100): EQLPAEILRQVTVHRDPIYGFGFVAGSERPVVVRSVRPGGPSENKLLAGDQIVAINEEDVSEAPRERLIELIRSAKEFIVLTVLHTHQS
Sequence of NHERF4_1, Q86UT5-2 (Q86UT5 other isoform, or with tags, fused parts or gaps): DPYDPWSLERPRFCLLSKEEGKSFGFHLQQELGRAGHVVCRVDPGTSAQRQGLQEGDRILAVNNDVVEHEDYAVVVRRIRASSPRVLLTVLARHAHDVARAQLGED
Sequence of TJP1_3, Q07157 (Q07157 416-512): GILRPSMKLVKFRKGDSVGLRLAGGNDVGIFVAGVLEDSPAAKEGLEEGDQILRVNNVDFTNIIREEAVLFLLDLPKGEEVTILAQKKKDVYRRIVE
Sequence of DLG1_3, Q12959 (Q12959 457-571): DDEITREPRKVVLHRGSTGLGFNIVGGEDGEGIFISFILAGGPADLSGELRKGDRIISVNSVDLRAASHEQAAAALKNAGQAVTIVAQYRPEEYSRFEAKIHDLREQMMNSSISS
Sequence of PDLIM1, O00151 (O00151 1-87): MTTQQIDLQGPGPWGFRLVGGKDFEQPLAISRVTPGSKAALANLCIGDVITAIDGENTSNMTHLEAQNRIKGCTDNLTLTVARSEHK
Sequence of GRIP2_3, Q9C0E4 (Q9C0E4 238-339): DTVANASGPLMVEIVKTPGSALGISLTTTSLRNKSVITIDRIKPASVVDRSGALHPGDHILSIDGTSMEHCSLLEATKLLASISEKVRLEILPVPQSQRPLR
Sequence of PTPN3, P26045 (P26045 505-587): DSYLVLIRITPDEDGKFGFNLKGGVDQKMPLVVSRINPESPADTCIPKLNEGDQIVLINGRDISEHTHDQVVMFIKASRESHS
Sequence of Inadl_8, Q8NI35 (Q8NI35 1425-1530): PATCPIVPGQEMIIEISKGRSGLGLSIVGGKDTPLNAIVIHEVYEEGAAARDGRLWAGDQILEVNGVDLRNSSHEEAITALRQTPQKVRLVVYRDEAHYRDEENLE
Sequence of Inadl_5, Q8NI35 (Q8NI35 673-780): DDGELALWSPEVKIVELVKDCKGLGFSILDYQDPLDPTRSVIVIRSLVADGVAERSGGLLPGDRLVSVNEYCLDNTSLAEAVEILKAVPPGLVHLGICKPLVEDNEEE
Sequence of NOS1, P29475 (P29475 9-101): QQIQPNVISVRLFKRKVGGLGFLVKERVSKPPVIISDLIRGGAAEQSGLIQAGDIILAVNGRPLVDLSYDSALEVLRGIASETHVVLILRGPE
Sequence of AHNAK1, Q09666 (Q09666 4-100): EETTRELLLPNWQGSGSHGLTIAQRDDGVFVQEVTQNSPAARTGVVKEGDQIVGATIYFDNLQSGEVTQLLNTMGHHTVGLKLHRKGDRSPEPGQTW

MHIQEKGFHV [EPHA6, Q9UF33] was tested, and the pKd (Inadl_10, Q8NI35; [1]) was “below the threshold”, the pKd (FRMPD3, Q5JV73; [1]) was “below the threshold” and the pKd (SCRIB_1, Q14160; [1]) was “below the threshold”. For the same binder, the pKd (Inadl_4, Q8NI35; [1]) was “below the threshold”, the pKd (GRIP1_5, Q9Y3R0; [1]) was “below the threshold” and the pKd (AHNAK1, Q09666; [1]) was “below the threshold”. The pKd (NOS1, P29475; [1]) was 3.62, the pKd (Inadl_8, Q8NI35; [1]) was “below the threshold” and the pKd (DLG1_3, Q12959; [1]) was “below the threshold”. For the same binder, the pKd (PTPN3, P26045; [1]) was “below the threshold”, the pKd (GRIP2_3, Q9C0E4; [1]) was “below the threshold” and the pKd (NHERF4_1, Q86UT5-2; [1]) was “below the threshold”. For the same binder, the pKd (Inadl_5, Q8NI35; [1]) was “below the threshold”, the pKd (HTRA3, P83110; [1]) was 3.61 and the pKd (PDZRN4_1, Q6ZMN7; [1]) was “below the threshold”. For the same binder, the pKd (APBA1_1, Q02410; [1]) was “below the threshold”, the pKd (DLG3_3, Q92796; [1]) was “below the threshold” and the pKd (APBA1_2, Q02410; [1]) was “below the threshold”. For the same binder, the pKd (GOPC, Q9HD26; [1]) was “below the threshold”, the pKd (PDLIM1, O00151; [1]) was “below the threshold” and the pKd (Inadl_9, Q8NI35; [1]) was “below the threshold”. For the same binder, the pKd (LNX2_2, Q8N448; [1]) was 4.09, the pKd (FRMPD1, Q5SYB0; [1]) was “below the threshold” and the pKd (TJP1_3, Q07157; [1]) was “below the threshold”. The pKd (DFNB31_2, Q9P202; [1]) was “below the threshold”, the pKd (DLG1_2, Q12959; [1]) was “below the threshold” and the pKd (TJP2_1, Q9UDY2; [1]) was “below the threshold”. For the same binder, the pKd (DVL3, Q92997; [1]) was “below the threshold” and the pKd (SCRIB_3, Q14160; [1]) was “below the threshold”.

In the case of EKQAKGDTEF [CACYBP, Q9HB71], the pKd (Inadl_10, Q8NI35; [2]) is reported as “below the threshold”, the pKd (FRMPD3, Q5JV73; [2]) is reported as 3.81 and the pKd (SCRIB_1, Q14160; [2]) is reported as “below the threshold”. For the same binder, the pKd (Inadl_4, Q8NI35; [2]) was “below the threshold”, the pKd (GRIP1_5, Q9Y3R0; [2]) was “below the threshold” and the pKd (AHNAK1, Q09666; [2]) was “below the threshold”. The pKd (NOS1, P29475; [2]) was “below the threshold”, the pKd (Inadl_8, Q8NI35; [2]) was “below the threshold” and the pKd (DLG1_3, Q12959; [2]) was “below the threshold”. The pKd (PTPN3, P26045; [2]) was 4.25, the pKd (GRIP2_3, Q9C0E4; [2]) was “below the threshold” and the pKd (NHERF4_1, Q86UT5-2; [2]) was “below the threshold”. For the same binder, the pKd (Inadl_5, Q8NI35; [2]) was “below the threshold”, the pKd (HTRA3, P83110; [2]) was “below the threshold” and the pKd (PDZRN4_1, Q6ZMN7; [2]) was “below the threshold”. The pKd (APBA1_1, Q02410; [2]) was “below the threshold”, the pKd (DLG3_3, Q92796; [2]) was “below the threshold” and the pKd (APBA1_2, Q02410; [2]) was “below the threshold”. For the same binder, the pKd (GOPC, Q9HD26; [2]) was “below the threshold”, the pKd (PDLIM1, O00151; [2]) was “below the threshold” and the pKd (Inadl_9, Q8NI35; [2]) was “below the threshold”. For the same binder, the pKd (LNX2_2, Q8N448; [2]) was “below the threshold”, the pKd (FRMPD1, Q5SYB0; [2]) was “below the threshold” and the pKd (TJP1_3, Q07157; [2]) was “below the threshold”. The pKd (DFNB31_2, Q9P202; [2]) was “below the threshold”, the pKd (DLG1_2, Q12959; [2]) was “below the threshold” and the pKd (TJP2_1, Q9UDY2; [2]) was “below the threshold”. The pKd (DVL3, Q92997; [2]) was “below the threshold” and the pKd (SCRIB_3, Q14160; [2]) was “below the threshold”.

With SLNANEVEWF [RNF130, Q86XS8] the pKd (Inadl_10, Q8NI35; [1]) was “below the threshold”, the pKd (FRMPD3, Q5JV73; [1]) was 4.07 and the pKd (SCRIB_1, Q14160; [1]) was 3.77. The pKd (Inadl_4, Q8NI35; [1]) was “below the threshold”, the pKd (GRIP1_5, Q9Y3R0; [1]) was “below the threshold” and the pKd (AHNAK1, Q09666; [1]) was “below the threshold”. For the same binder, the pKd (NOS1, P29475; [1]) was 4, the pKd (Inadl_8, Q8NI35; [1]) was “below the threshold” and the pKd (DLG1_3, Q12959; [1]) was 3.64. For the same binder, the pKd (PTPN3, P26045; [1]) was 4.36, the pKd (GRIP2_3, Q9C0E4; [1]) was “below the threshold” and the pKd (NHERF4_1, Q86UT5-2; [1]) was 3.89. For the same binder, the pKd (Inadl_5, Q8NI35; [1]) was 3.51, the pKd (HTRA3, P83110; [1]) was 4.68 and the pKd (PDZRN4_1, Q6ZMN7; [1]) was “below the threshold”. It also gave a pKd (APBA1_1, Q02410; [1]) of 3.56, a pKd (DLG3_3, Q92796; [1]) of 3.63 and a pKd (APBA1_2, Q02410; [1]) of 3.79. The pKd (GOPC, Q9HD26; [1]) was “below the threshold”, the pKd (PDLIM1, O00151; [1]) was “below the threshold” and the pKd (Inadl_9, Q8NI35; [1]) was “below the threshold”. For the same binder, the pKd (LNX2_2, Q8N448; [1]) was 3.7, the pKd (FRMPD1, Q5SYB0; [1]) was “below the threshold” and the pKd (TJP1_3, Q07157; [1]) was “below the threshold”. For the same binder, the pKd (DFNB31_2, Q9P202; [1]) was “below the threshold”, the pKd (DLG1_2, Q12959; [1]) was “below the threshold” and the pKd (TJP2_1, Q9UDY2; [1]) was 3.67. For the same binder, the pKd (DVL3, Q92997; [1]) was 4.48 and the pKd (SCRIB_3, Q14160; [1]) was 3.96.
